Source: patent US20170030891A1, “BLOOD CONDITION ANALYSIS DEVICE, BLOOD CONDITION ANALYSIS SYSTEM, BLOOD CONDITION ANALYSIS METHOD, AND PROGRAM” (SONY CORPORATION, priority 2014, published 2017)

Tested on: fibrinolysis system of the blood
Assay: complex permittivity at 10 MHz of blood samples with fibrinolysis system promotor (tPA) and inhibitor (aprotinin)
Conditions: blood sample of tPA=8 and aprotinin=0, FIG. 9
Method: In addition, for example, in the case where the fibrinolysis system is evaluated, examples of coagulation factors to be evaluated include plasminogen and plasmin. In that case, as a drug to be added to the blood sample, an activator or inhibitor of plasminogen or plasmin is usable. FIG. 9 is a diagram showing time-dependent changes in the real part (∈′) of the complex permittivity at 10 MHz of blood samples having different fibrinolysis system promotor (tPA) and fibrinolysis system inhibitor (aprotinin) concentrations.
For the evaluation of the fibrinolysis-system blood, for example, a value obtained by dividing the amplitude after 30 minutes from the time B shown in FIGS. 2A-2B by the amplitude at the time B (LI30: the source of clot firmness after a predetermined period of time from the maximum firmness accompanying fibrinolysis) can be used as an evaluation parameter.

B1: tPA: fibrinolysis system promotor (protein, UniProt P00750 36-562, looked up)
Tissue-type plasminogen …: SYQVICRDEKTQMIYQQHQSWLRPVLRSNRVEYCWCNSGRAQCHSVPVKSCSEPRCFNGGTCQQALYFSDFVCQCPEGFAGKCCEIDTRATCYEDQGISYRGTWSTAESGAECTNWNSSALAQKPYSGRRPDAIRLGLGNHNYCRNPDRDSKPWCYVFKAGKYSSEFCSTPACSEGNSDCYFGNGSAYRGTHSLTESGASCLPWNSMILIGKVYTAQNPSAQALGLGKHNYCRNPDGDAKPWCHVLKNRRLTWEYCDVPSCSTCGLRQYSQPQFRIKGGLFADIASHPWQAAIFAKHRRSPGERFLCGGILISSCWILSAAHCFQERFPPHHLTVILGRTYRVVPGEEEQKFEVEKYIVHKEFDDDTYDNDIALLQLKSDSSRCAQESSVVRTVCLPPADLQLPDWTECELSGYGKHEALSPFYSERLKEAHVRLYPSSRCTSQHLLNRTVTDNMLCAGDTRSGGPQANLHDACQGDSGGPLVCLNDGRMTLVGIISWGLGCGQKDVPGVYTKVTNYLDWIRDNMRP
- characteristics of time-dependent change of ∈′ at 10 MHz: exhibits similar characteristics to the blood of a patient with the fibrinolysis system promoted
